Source: the nanobody polyreactivity screen of Harvey et al. (2022)

Assay: yeast display, Sf9 membrane polyspecificity reagent, FACS + sequencing; frameworks hold sequencing errors
How it was run: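 Polyreactivity labels are assigned by the sorting gate from which each nanobody was recovered. The gates were low and high (top ~1%), set on anti-HA fluorescence for expression and streptavidin fluorescence for reagent binding. Before sorting, galactose-induced (36–48 hours) yeast display cells were stained for 1 hour at 4 °C with 10% biotinylated, detergent-solubilized Sf9 membrane reagent.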

| Sequence | polyreactivity (PSR sort gate) |
| --- | --- |
| QVQLVESGGGLVQAGGSLRLSCAASGSTFVYYAMGWYRQAPGKEREFVATIYRGDNTNYADSVKGRFTISRDNAKNTVYLQMNSLKPEDTAVYYCAADEPKWDLGGGTYLRDYWGLGTQVTVSS | low polyreactivity |
| QVQLVESGGGLVQAGGSLRLSCAASGSTFVYYAMGWYRQAPGKERELVAAIRNGDGTNYADSVKGRFTISRDNAKNTVYLQMNSLKPEDTAVYYCAAPQGEYFYVYEFDYWGQGTQVTVSS | low polyreactivity |
| QVQLVESGGGLVQAGGSLRLSCAASGSTFVYYAMGWYRQAPGKERELVAAISTSAGSTYYADSVKGRFTISRDNAKNTVYLQMNSLKPEDTAVYYCAAGRYYRGYYWGQGTQVTVSS | high polyreactivity |
| QVQLVESGGGLVQAGGSLRLSCAASGSTFVYYAMGWYRQAPGKERELVAAISWSGTRTYYADSVKGRFTISRDNAKNTVYLQMNSLKPEDTAVYYCATRKQSRSVGYNYWGQGTQVTVSS | high polyreactivity |
| QVQLVESGGGLVQAGGSLRLSCAASGSTFVYYAMGWYRQAPGKERELVAAITASGGGTYYADSVKGRFTISRDNAKNTVYLQMNSLKPEDTAVYYCNRGYDYWGQGTQVTVSS | low polyreactivity |
| QVQLVESGGGLVQAGGSLRLSCAASGSTFVYYAMGWYRQAPGKERELVAAITSRGGSTYYADSVKGRFTISRDNAKNTVYLQMNSLKPEDTAVYYCAKYAYSFPYNYWGQGTQVTVSS | high polyreactivity |
| QVQLVESGGGLVQAGGSLRLSCAASGSTFVYYAMGWYRQAPGKERELVAAMTSSGGRTYYADSVKGRFTISRDNAKNTVYLQMNSLKPEDTAVYYCATPSTRLYSVTSQGYGYWGQGTQVTVSS | high polyreactivity |
| QVQLVESGGGLVQAGGSLRLSCAASGSTFVYYAMGWYRQAPGKERELVADISWSGGDTYYADSVKGRFTISRDNAKNTVYLQMNSLKPEDTAVYYCAAEWSTPSYVGFADGFEYWGQGTQVTVSS | low polyreactivity |
| QVQLVESGGGLVQAGGSLRLSCAASGSTFVYYAMGWYRQAPGKERELVASITGGGRTNYADSVKGRFTISRENAKNNVYLQMNSLKPEDTAVYYCAKDHASYYYWPSVLPYDHWGQGSQVTVSS | low polyreactivity |
| QVQLVESGGGLVQAGGSLRLSCAASGSTFVYYAMGWYSQAPGKERELVAAITRSGGRTYYADSVKGRFTNSRDNAKNRVYLQMNSLKPEDTAVYYCAADDYTGYGYWGQGTQVTVSS | high polyreactivity |
| QVQLVESGGGLVQAGGSLRLSCAASGSTFVYYDMGWYRQAPGKERELVAAITNGGNTYYADSVKGRFTISRDNAKNTVYLQMNSLKPEDTAVYYCAKLYTDAIVWSAYDYWGQGTQVTVSS | low polyreactivity |
| QVQLVESGGGLVQAGGSLRLSCAASGSTFWAYVMGWYRQAPGKERELVAAISSGGTTNYADSVKGRFTISRDNAKNTVYLQMNSLKPEDTAVYYCAAEYPSVYYERFDYWGQGTQVTVSS | low polyreactivity |
| QVQLVESGGGLVQAGGSLRLSCAASGSTFWEKAIGWSRQAPGKEMELAAAISWGGASTYYADSVKGRFTISRDNAKNTVYLQMNSLKPEDTAVYYCAADQTSTQFLSSYGGYNYWGQGTQVTVSS | low polyreactivity |
| QVQLVESGGGLVQAGGSLRLSCAASGSTFWFNAMGWYRQAPGKERELVAAIDSGGGTYYADSVKGRFTISRDNAKNTAYLQMNSLKPEDTAVFYCNASHPPKAELDYWGQGTQVTVSS | low polyreactivity |
| QVQLVESGGGLVQAGGSLRLSCAASGSTFWFYAMGWYRQAPGKERELVAVISNSGSTYYADSVKGRFTISRDNAKNTVYLQMNSLKPEDTAVYYCNRYYPVPYDYWGQGTQVTVSS | low polyreactivity |
| QVQLVESGGGLVQAGGSLRLSCAASGSTFWHYAMGWYRQAPGKERELVAAISSGGGRTYYADSVKGRFTISRDNAKNTVYLQMNSLQPEDTAVYYCAARYYFYDYWGQGTQVTLSS | high polyreactivity |
| QVQLVESGGGLVQAGGSLRLSCAASGSTFWKYVKGWYRQAPGKERELVAAISNSGVNTYYADSVKGRFTISRDNAKNTVYLQMNSLKTEDTAVYYCAADRCGYEYWGQGTQVTVSS | high polyreactivity |
| QVQLVESGGGLVQAGGSLRLSCAASGSTFWLYTMGCYRQAPVKERELVAAISTRGGSTYYADSVKGRFTISRDNAKNTVYVQMHSLKPEDTAVYYCAAYPTYGEYDYWGQGSQVTVSS | high polyreactivity |
| QVQLVESGGGLVQAGGSLRLSCAASGSTFWLYVMGWYRQAPGKERELVAAISSGGITKYADSVKGRFTISRDNAKNTVYLQMNSLKPEDTAVYYCAVGVLGYRRVTGYYWGQGTQVTVTS | high polyreactivity |
| QVQLVESGGGLVQAGGSLRLSCAASGSTFWNAMGWYRQAPGKERELVAAIRLSGGSTYYADSVKGRFTISRDNAKNTVYLQMNRLKPEDTAVYYCATDLVFVSSDLQETAYYWGQGTQVTVSS | low polyreactivity |
| QVQLVESGGGLVQAGGSLRLSCAASGSTFWNYAMGWYRQAPGKERELVAAITRGSSTNYADSVKGRFTISRDNAKNTVYLQMNSLKPEDTAVYYCANPVGRWSAFYYWGQGTQVTVSS | high polyreactivity |
| QVQLVESGGGLVQAGGSLRLSCAASGSTFWNYAMGWYRQAPGKERELVASIDSSDGRTYYADSVKGRFTSSRDNAKNTVFLQMTRQKPEDTAVDYCAKDAYAVELRPYSKLSSRADGYWGHGTQVTVSS | low polyreactivity |

| Sequence | polyreactivity (PSR sort gate) |
| --- | --- |
| QVQLVESGGGLVQAGGSLRLSCAASGSTFWPYAMGRYRPAPGKERELGATIRGGGTSTYYADSVKGRVTISRDNAKNTVYLQMNSLKPEDTAGYYCAARGFYTGSYPGYYYWGQGTQVTVSS | high polyreactivity |
| QVQLVESGGGLVQAGGSLRLSCAASGSTFWPYAMGWYIQAPGKERELVAAITSSGGSTYYADSVKGRFTISRDNAKNTVYLQMNSLKAEDTAVYYCAADWSNLGAYDYWGQGTQVTVSS | low polyreactivity |
| QVQLVESGGGLVQAGGSLRLSCAASGSTFWPYAMGWYRQAPGKERELVAAITTRDGSTYYADSVKGRFTISRDNAKNTVYLQMNSLKPEDTAVYYCAAKSSRYDYYYWGQGTQVTVSS | high polyreactivity |
| QVQLVESGGGLVQAGGSLRLSCAASGSTFWPYAMGWYRQAPVKERELVADISRRCGSTYYADSVKGRFTISRDNAKNTVYLQMNSLKPEDTAVYYCAKYPSAYVDSDVTYDMAYWGQGTQVTVSS | low polyreactivity |
| QVQLVESGGGLVQAGGSLRLSCAASGSTFWPYTMGWYRQAPGKERELVAAITLRGGTTYYADSVKGRFTISRDNEKNTVYLQMNSLKPEDTAVYYCAADVAYVEYDYWGQGTQVTVSS | low polyreactivity |
| QVQLVESGGGLVQAGGSLRLSCAASGSTFWQYALGWYRQAPGKEREFVAAISSRGGSTYYADSVKGRFTISRDNAKNTVYLQMNSLKPEDTAVYYCAAQNYFAFIRTYRYVHRPTYYYWGQGTQVTVSS | high polyreactivity |
| QVQLVESGGGLVQAGGSLRLSCAASGSTFWRNAMGWYRQAPGKERELVAAISRGGSTNYADSVKGRFTISRDNAKNTVYLQMNSLKPEDTAVYYCAARYYYRYNYWGQGTQVTVSS | high polyreactivity |
| QVQLVESGGGLVQAGGSLRLSCAASGSTFWRYAMGWYRQAPGKERELVAAISRSGGSTYYADSVKGRFTISRDNAKNTVYLQMNSLKPEDTAVYYCAAQYGGKYKLYSDSYAMDYWGQGTQVTVSS | high polyreactivity |
| QVQLVESGGGLVQAGGSLRLSCAASGSTFWSNAMGWYRQAPGKERELVAAISISDGNTYYADSVKGRFTISRDNAKNTVYLQMNSLKPEDTAVYYCATVGSEDGDPGFDYWGQGTQVTVSS | low polyreactivity |
| QVQLVESGGGLVQAGGSLRLSCAASGSTFWSNAMGWYRQAPGKERELVAAITRGGSTNYADSVKGRFTISRDNAKNTVYLQMNSLKPEDTAVYFCAATYVPYGRRLYAYYYWGQGTQVTVSS | high polyreactivity |
| QVQLVESGGGLVQAGGSLRLSCAASGSTFWSNTMGWYRQAPGKERELVATITDSGGITYYADSVKGRFTISRDNAKNTVYLQMNSLKPEDTAVYYCNVRKTWYGYSVTGRYDYWGQGTQVTVSS | low polyreactivity |
| QVQLVESGGGLVQAGGSLRLSCAASGSTFWSNVMGWYRQAPGKERELVSAISYGGVTTSYADSVKGRFTISRDNAKNTVYLQMNSLKPEDTAVYYCAAYNGAHSHFGYWGQGTQVTVSS | low polyreactivity |
| QVQLVESGGGLVQAGGSLRLSCAASGSTFWSYTMGGYRQAPGKERELVAAISRSGGSTYYADSVKGRFTISRDNAKNTVYLQKNSLKPEDTAVYYCAASDRYGSRYYYWGQGTQVTVSS | high polyreactivity |
| QVQLVESGGGLVQAGGSLRLSCAASGSTFWVNAMGWYRQAPGKERELVAAITYSGGSTHYADSVKGRFTISRDNAKNTVYLQMNSLKPEDTAVYYCNAEHWADYDYWGQGTQVTVSS | low polyreactivity |
| QVQLVESGGGLVQAGGSLRLSCAASGSTFWVYDMGWYRQAPGKERELVAAISRRGGRTYYADSVKGRFTISRDNAKNTVYLQMNSLKPEDTAVYYCNRRYTQPDTRQWYDYWGQGTQVTVSS | low polyreactivity |
| QVQLVESGGGLVQAGGSLRLSCAASGSTFWVYTKGWYRQAPGKERELVAAITGSTGNTYYADSVKGRFTISRDNPKNTVYFQMNSLKPEDTAVYYCSADSYWSYRYPMGYDNWGQGSQVTVSS | low polyreactivity |
| QVQLVESGGGLVQAGGSLRLSCAASGSTFWWYAMGWYRQAPGKEREFVAAITSTGGSTYYADSVKGRFTISHDNAKNTVYLQMNSLKPEDTAVYYCAVRLYLEMDYWGQGTQVTVSS | high polyreactivity |
| QVQLVESGGGLVQAGGSLRLSCAASGSTFWYAMGWYRQAPGKERELVAAITARGGRTYYADSVKGRFTISRDNAKNTVYLQMNSLKPEDTAVYYCARLSYAGGQWIIGKYDYWGQGTQVTVSS | high polyreactivity |
| QVQLVESGGGLVQAGGSLRLSCAASGSTFWYNTMGWYRQAPGKERELVAAISWSGGSTYADSVKGRFTISRDNAKNTVYLQMNSLKPEDTAVYYCNADDYYRYDYWGLGTQVTVSS | low polyreactivity |
| QVQLVESGGGLVQAGGSLRLSCAASGSTFWYYAMGWSRQAPGKERELVAAIRRGGSTYYADSVKGRFTISRDNAKNTVYLQMNSLKPVDTAVYYCAAERPYKTFGYGYWGQGTQVTVSS | high polyreactivity |
| QVQLVESGGGLVQAGGSLRLSCAASGSTFWYYAMGWYRQAPGKERELVAAITSSGSTYYADSVKGRFTISRDNAKNTVYLQMYSLKPEDTAVYYCAAEQWYGYASYDYWGQGTQVTVSS | high polyreactivity |
